Assay results: paper PMC5305270
Where a chain is given by its changes, count along the chain named. In names and notes the source's numbering stands. Blank lines part the entries; values can stand above or below the binder they belong to.

Target: T1, GST::DEP-1intra-DA (intracellular domain of C. elegans DEP-1 with the substrate trapping mutation D1241A, GST fusion), G5EGJ9
T1 chain: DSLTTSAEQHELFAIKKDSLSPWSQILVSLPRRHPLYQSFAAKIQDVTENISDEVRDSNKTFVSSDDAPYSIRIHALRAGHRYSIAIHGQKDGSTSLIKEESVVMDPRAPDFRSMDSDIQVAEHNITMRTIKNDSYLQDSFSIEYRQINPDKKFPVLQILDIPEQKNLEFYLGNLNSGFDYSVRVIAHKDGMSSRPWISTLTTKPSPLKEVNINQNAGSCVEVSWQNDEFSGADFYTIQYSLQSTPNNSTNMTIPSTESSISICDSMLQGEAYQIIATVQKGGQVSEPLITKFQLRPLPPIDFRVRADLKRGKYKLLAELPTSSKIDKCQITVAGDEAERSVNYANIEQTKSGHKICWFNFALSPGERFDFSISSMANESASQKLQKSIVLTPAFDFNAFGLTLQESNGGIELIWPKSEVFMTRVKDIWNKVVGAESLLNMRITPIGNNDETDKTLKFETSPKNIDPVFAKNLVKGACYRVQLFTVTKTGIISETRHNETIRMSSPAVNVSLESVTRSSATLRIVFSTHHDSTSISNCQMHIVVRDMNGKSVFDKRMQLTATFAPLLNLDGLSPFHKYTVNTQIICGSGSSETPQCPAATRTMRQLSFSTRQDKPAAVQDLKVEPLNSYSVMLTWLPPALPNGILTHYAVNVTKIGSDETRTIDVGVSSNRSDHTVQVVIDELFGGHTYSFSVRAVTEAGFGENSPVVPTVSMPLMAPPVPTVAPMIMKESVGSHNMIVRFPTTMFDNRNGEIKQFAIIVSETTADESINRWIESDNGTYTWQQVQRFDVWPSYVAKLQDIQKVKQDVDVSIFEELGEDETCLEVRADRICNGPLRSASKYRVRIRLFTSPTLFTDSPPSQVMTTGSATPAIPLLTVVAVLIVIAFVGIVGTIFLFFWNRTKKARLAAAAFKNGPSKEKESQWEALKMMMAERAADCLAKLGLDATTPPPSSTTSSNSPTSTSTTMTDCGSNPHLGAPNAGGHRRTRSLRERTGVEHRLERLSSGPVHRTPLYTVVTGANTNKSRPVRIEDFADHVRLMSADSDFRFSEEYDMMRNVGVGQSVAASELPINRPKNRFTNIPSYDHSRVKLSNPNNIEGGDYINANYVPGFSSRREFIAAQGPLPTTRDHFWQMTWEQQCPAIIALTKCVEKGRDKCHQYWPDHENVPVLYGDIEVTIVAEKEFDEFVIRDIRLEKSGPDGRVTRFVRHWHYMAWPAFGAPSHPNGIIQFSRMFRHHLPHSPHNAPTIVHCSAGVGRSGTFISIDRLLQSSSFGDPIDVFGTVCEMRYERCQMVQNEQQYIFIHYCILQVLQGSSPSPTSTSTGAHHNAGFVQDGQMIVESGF
Test: GST pull-down, anti-GFP Western blot, densitometry
Conditions: chain shown with the change; three independent experiments; band intensities normalized to input; parent: est. 100; read off a plot

percent of parent: 13%
B1: PAT-3::GFP (wild type), Q27874 Y792A; Y804A (protein)
chain: ASDWKTGEVTGKVVEKSEFPCYSLSRDNYTCSACIQYHESCAWCGAPMFDEKKPYARCDSRAKLMEHGCPNSYIEDPATKLDITEDSKLSDQGQVESEEEAVQIKPQEMYVEIRPKSRVRFNVTYRQAVDYPVDLYYLMDLSYSMKDDKQKLSELGDLLAERMRTVTKNFRLGFGSFIDKKLMPFIDPRIEKQLSPCPTPCAEPYGFKHQMSLTTNTAKFKAEVDKAEISGNLDAPEGGFDAVVQALACNKTIGWRERARKMIVFSTDAGFHFAGDGRLAGVVEPNDGTCHLDREGYYTETLNQDYPSIALLHQMIKDRKANVIFAVTKNNQDLYTQLSNALPDVSSSVGVLANDSRNIVDLIEKEYLKISEKIIMVDNANASEGLKLTYRSMCLDGTTLKDTNVCEGIRVGDEVQFEVTLENTHCIDKRDFVLRIGPSGLDETLIVNVKVLCDCDCERQDRIVTNSADCNGGDMVCGVCRCKGGNVGKYCECNRPGMSTAALNEKCKRTNESAICEGRGVCNCGRCECNPRANPEEQISGEFCECDNFNCPRHDRKICAEHGECNCGKCICAPGWTGRACECPISTDSCLSANGKICNGKGECICGRCRCFDSPDGNRYSGAKCEICPTCPTKCVEYKNCVMCQQWQTGPLNETACDQCEFKVIPVEELPNLNETTPCQFVDPADDCTFYYLYYYDEATDNATVWVRKHKDCPPPVPVLAIVLGVIAGIVILGILLLLLWKLLTVLHDRSEYATFNNERLMAKWDTNENPIAKQATTTFKNPVAAGKAN

percent of parent: 13%
B2: PAT-3::GFP (wild type), Q27874 TTT796-798AAA (protein)
chain: B1 chain with A773Y, T777A, T778A, T779A, A785Y

percent of parent: 10%
B3: PAT-3::GFP (wild type), Q27874 Y792A (protein)
chain: B1 chain with A785Y

percent of parent: 37%
B4: PAT-3::GFP (wild type), Q27874 Y772A (protein)
chain: B1 chain with Y753A, A773Y, A785Y

percent of parent: 92%
B5: PAT-3::GFP (wild type), Q27874 Y804A (protein)
chain: B1 chain with A773Y
